The labels stand for the following.
B1: TPR t1 (parent)
chain: GACCAAUCUGCCCUCAGAGCUCGAGAACAUCUUCGGAUGCAGAGGAGGCAGGCUUCGGUGGCGCGAUAGCGCCAACGUCCUCAACCUCCAAUGCAUCCCACCACAUGAUGAUGCCUGAAGAGCCUUGGUUUUUUG

The data set covers variants of B1. Kind of data set: polymerase ribozyme fitness, log enrichment relative to wild type (log ratio); higher = more active; in vitro selection for triplet polymerase activity. In a few lines: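 Only genotypes with ≥10 input reads and ≥1 read per output were kept after Illumina sequencing of input and output libraries. These libraries were PCR-built, transcribed mutants of each subunit of a heterodimeric triplet polymerase ribozyme, each put through one triplicate in vitro selection round with frozen incubation at −7 °C, gel excision of extended constructs, streptavidin-bead capture and RT-PCR. Fitness is a logarithmic ratio of genotype enrichment to wild-type enrichment, from inverse-variance-weighted replicate averages, with the logarithm in base 2.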
With GACCAAUCUACCCUCAGAGCUCGAGAACAUCUUCGGAUGCAGAGGAGACAGGCUUCGGUGGCUCGAUAGCGCCAACGUCCUGAACCUCCAUUGCAUCCCACCACAUGAUGAUGCCUCAAGAGCCUUGGUUUUUUG, the “polymerase ribozyme fitness (log ratio)” value was -5.31.

With GACCAAUCUACCCUCAGAGCUCGAGAACAUCUUCGGAUGCAAUGGAGGCAGGCUUCGGUGGCGCGAUAGCGCCAACGUCCUCAACCUCCAAUGCAUCCCACCACAUGAUGAUGCCUGAAGAGCCUUGGUUUUUUG, the “polymerase ribozyme fitness (log ratio)” value was -1.82.

Consider GACCAAUCUACCCUCAGAGCUCGAGAACAUCUUCGGAUGCAGAGGAGGCAGGCUUCGGUGGCGCGAUAGCGCCAACGUCCUCAACCUGCAAUGCAUCCCACCACAUGAUGCUGCCUGAAGAGCCUUGGUUUUUUG, for which the “polymerase ribozyme fitness (log ratio)” value was -0.763.

Turning to GACCAAUCUACCCUCAGAACUCGAGAACAUCUUCGGAUGCAGAGGAGGCAGGCUUCGGUGGCGCGAUAGAGCCAACGUCCUCAACCUCCAAUGCAACCCACCAUAUGAUGAUGCCUGAAGAGCCUUGGUUUUUUG, the “polymerase ribozyme fitness (log ratio)” value was -6.15.

In the case of GACCAAUCUACCCUCAGAGCUCGAGAACAUCUUCGGAUGCAGAGGACGCAGGCUUCGGUGGCACGAUAGCGCCAACGUCCUCAACCUCCAAUGCAUUCCAAUACAUGAUGAUGCCUGAAGAGCCUUGGUUUUUUG, the “polymerase ribozyme fitness (log ratio)” value is -8.22.

As to GACCAAUCUACCCUCAGAGCUCGAGAACAUCUUCGGAUGCAGAGGAGACAGACUUCGGUGGCGCGAUAGCGCCAACGUCCUCAACCUCCAAUGCAUCCCACCACAUGAUGAUGCCUGAAGAGCCUUGGUUUUUUG, the “polymerase ribozyme fitness (log ratio)” value is -1.11.

As to GACCAAUCUACCCUCAGAACUCGAGAACAUCUUCGGAUGCAGAGGAGGCAGGCUUCGGUGGCGCGAUAGCGCCAACGUCCUCAACCUCCAAUGCAUCCCACCACAUGAUGAUGUCUGAAGAGCCUUGGUUUUGUG, the “polymerase ribozyme fitness (log ratio)” value worked out at 0.465.

For the variant GACCAAUCUACCCUCAGAGCUCGAGAACAUCUUCGGAUUCAGAGGAGGCAAGCUUCGGUGGCGCGAUAGUGCCAACGUCCUCAACCUCCAAUGCAUCCCACCACAUGAUGAUGCCUGAAGAGCCUUGGUUUUUUG, the “polymerase ribozyme fitness (log ratio)” value is -5.24.

Turning to GACCAAUCUACCCUCAGAGCUCGAGAACAUCUUCGGAUGCAGAGGAGGCAGGCUUCGGUGGCGCGAUAGCGCCAACGUACUCAACCUCCAAUGCAUCCCACCACAUGAUGAUGCCUGAAGAGUCUUGGUUUUUUG, the “polymerase ribozyme fitness (log ratio)” value stood at 1.23.

Regarding GACCAAUCUACCCUCAGAGCUCGAGAACAUCUUCGGAUGCAGAGUAGGCAGGCUUCGGUGGCGCGAUAGCGCCAACGUCCUCAACCUCCAAUGCAUCCCACCACAUGAUGAUACCUGAAGAGCCUUGGUUUUUUG, the “polymerase ribozyme fitness (log ratio)” value is -1.45.

As for GACCAAUCUACCCUCAGAGCUCGAGAACAUCUUCGGAUGCAUAGGAGGAAGGCUUCGGUGCCGCGAUAGCGCCAACGUCCUCAACCUCCAAUGCAUCACACCACAUGAUGAGGCCUGAAGAGCCUUGGUGUUUUG, the “polymerase ribozyme fitness (log ratio)” value is -7.46.

With GACCAAUCUACCCUCAGAGCUCAAGAACAUCUUCGGAUGCAGAGGAGGCAGGCUUCGGUGGCGCGAUAGCGCCAACGUCCUCAACCUCCAAUGCAUCCCACCACAUGAUGAUGCCUGAAGAGCCUUGGUUUUUUG, the “polymerase ribozyme fitness (log ratio)” value is -4.78.

Regarding GACCAAUCUACCCUCAGAGCUCGAGAACAUCUUCGGAUGCAGAGGAGGCAGGCUUCGGUGGCGCGAUAGCGCCAACGUCCUCAACCUCCAAUGCAUACCACCACAUGAUGAUGCCUGAAGAGCCUUGGUUUUUUG, the “polymerase ribozyme fitness (log ratio)” value is -4.44.

On to GACCAAUCUACCCUCAGAUCUCGAGAACAUCUUCGGAUGCAGAGGAGGCAGGCUUCGGUGUCGCGAUAGCGCCAACGUCCUCAACCUCCAAUGCAUCCCACCACAUGAUGAUGCCUGAAGAGCCUUGGUUUUUUG, for which the “polymerase ribozyme fitness (log ratio)” value is -4.88.

As to GACCAAUCUACCCUCAGACCUCGAGAACAUCUUCGGAUGCAGAGGAGGCAGGCUUCGGUGGCCCGAUAGCGCCAACGUCCUCAACCUCCAAUGCAUCCCACCACAUGAUGAGGCCUGAAGAGCCUUGGUUUUGUG, the “polymerase ribozyme fitness (log ratio)” value was -5.97.

As for GACCAAUCUACCCUCAGAGCUCGAGAACAUCUUCGGAUGCAGAGGAGGCAGGCUUCGGUGGCGCGAUAGCGCCAACGUCCUCAACCUCCAAUGCAUCCCACCAUAUGAUGAUGCCUGAAGAGCCUUGGUUUUUUG, the “polymerase ribozyme fitness (log ratio)” value was -0.557.

Turning to GACCAAUCUACCCUCAGAGCUCGAGAACAUCUUCGGAUGCAGAGUAGGCAGGCUUCGGUGGCGCGAUAGCGCCAACGUCCUCAACCUCCAAUGCAUCCCACCACAUGAUGAUGCCUGAAGAGCCUUGGUUUUUUG, the “polymerase ribozyme fitness (log ratio)” value is -1.26.

As for GACCAAUCUACCCUCAGAGCUCGAGAACAUCUUCGGAUGCAGAGGAGGCAGGCUUCGGUGGCGCGAUAGCGCCAAGGUCCUCAACCUCCAAUGCAUCCCACCACAUGAUGAUGCCUGAAAAGCCUUGGUUUUUUG, the “polymerase ribozyme fitness (log ratio)” value is 1.28.

For GACCAAUCUACCCUCAGAGCUCGAGAACAUCUUCGGAUGCAGAGGAGGCAGGCUUCGGUGGCGCGAUAGCGCCAACGUCCUCAAUCUCCAAUGCAUCCCACCACAUGAUGAUGCCUGAAGAGCCUUGGUUUUUUG, the “polymerase ribozyme fitness (log ratio)” value is -0.189.

With GACCAAUCUACCCUCAGAGCUCGAGAACAUCUUCGGAUGCAGAAGAGGCAGGCUUCGGUGGCCCGAUAGCGCCAACGUCCUCAACCUCCAAUGCAUCCCACCACAUGAUGAUGCCUGAAGAGCCUUGGUUUUUUG, the “polymerase ribozyme fitness (log ratio)” value is -0.955.

For GACCAAUCUACCCUCAGAGCUCGAGAACAUCUUCGGAUGCAGAGGAGGCAGGCUUCGGUGGCGCGAUAGCGCCAACGUCCUCAACAUCCAAUGCAUCCCACCACAUGAUGAUGCCUGAAGAGCCUUGGUUUUUUG, the “polymerase ribozyme fitness (log ratio)” value was -0.0637.

These data come from the RNAGym collection of RNA variant scans (doi:10.1073/pnas.2313332121).
